Laboratory results reported in ChEMBL document CHEMBL2074211, “Modulation of nitrated lipid signaling by multidrug resistance protein 1 (MRP1): glutathione conjugation and MRP1-mediated efflux inhibit nitrolinoleic acid-induced, PPARgamma-dependent transcription activation” (Biochemistry, 2006).

Substrate: CCCCC/C=C\C/C(=C\CCCCCCCC(=O)O[C@@H]1O[C@H](C(=O)O)[C@@H](O)[C@H](O)[C@H]1O)[N+](=O)[O-]
Experiment: TP_TRANSPORTER: vesicle uptake in MRP1-expressing membrane vesicles
Type: functional, cell membranes, MCF7/MRP1-10

B1: Multidrug resistance-associated protein 1 (Homo sapiens) (protein)
chain: MALRGFCSADGSDPLWDWNVTWNTSNPDFTKCFQNTVLVWVPCFYLWACFPFYFLYLSRHDRGYIQMTPLNKTKTALGFLLWIVCWADLFYSFWERSRGIFLAPVFLVSPTLLGITMLLATFLIQLERRKGVQSSGIMLTFWLVALVCALAILRSKIMTALKEDAQVDLFRDITFYVYFSLLLIQLVLSCFSDRSPLFSETIHDPNPCPESSASFLSRITFWWITGLIVRGYRQPLEGSDLWSLNKEDTSEQVVPVLVKNWKKECAKTRKQPVKVVYSSKDPAQPKESSKVDANEEVEALIVKSPQKEWNPSLFKVLYKTFGPYFLMSFFFKAIHDLMMFSGPQILKLLIKFVNDTKAPDWQGYFYTVLLFVTACLQTLVLHQYFHICFVSGMRIKTAVIGAVYRKALVITNSARKSSTVGEIVNLMSVDAQRFMDLATYINMIWSAPLQVILALYLLWLNLGPSVLAGVAVMVLMVPVNAVMAMKTKTYQVAHMKSKDNRIKLMNEILNGIKVLKLYAWELAFKDKVLAIRQEELKVLKKSAYLSAVGTFTWVCTPFLVALCTFAVYVTIDENNILDAQTAFVSLALFNILRFPLNILPMVISSIVQASVSLKRLRIFLSHEELEPDSIERRPVKDGGGTNSITVRNATFTWARSDPPTLNGITFSIPEGALVAVVGQVGCGKSSLLSALLAEMDKVEGHVAIKGSVAYVPQQAWIQNDSLRENILFGCQLEEPYYRSVIQACALLPDLEILPSGDRTEIGEKGVNLSGGQKQRVSLARAVYSNADIYLFDDPLSAVDAHVGKHIFENVIGPKGMLKNKTRILVTHSMSYLPQVDVIIVMSGGKISEMGSYQELLARDGAFAEFLRTYASTEQEQDAEENGVTGVSGPGKEAKQMENGMLVTDSAGKQLQRQLSSSSSYSGDISRHHNSTAELQKAEAKKEETWKLMEADKAQTGQVKLSVYWDYMKAIGLFISFLSIFLFMCNHVSALASNYWLSLWTDDPIVNGTQEHTKVRLSVYGALGISQGIAVFGYSMAVSIGGILASRCLHVDLLHSILRSPMSFFERTPSGNLVNRFSKELDTVDSMIPEVIKMFMGSLFNVIGACIVILLATPIAAIIIPPLGLIYFFVQRFYVASSRQLKRLESVSRSPVYSHFNETLLGVSVIRAFEEQERFIHQSDLKVDENQKAYYPSIVANRWLAVRLECVGNCIVLFAALFAVISRHSLSAGLVGLSVSYSLQVTTYLNWLVRMSSEMETNIVAVERLKEYSETEKEAPWQIQETAPPSSWPQVGRVEFRNYCLRYREDLDFVLRHINVTINGGEKVGIVGRTGAGKSSLTLGLFRINESAEGEIIIDGINIAKIGLHDLRFKITIIPQDPVLFSGSLRMNLDPFSQYSDEEVWTSLELAHLKDFVSALPDKLDHECAEGGENLSVGQRQLVCLARALLRKTKILVLDEATAAVDLETDDLIQSTIRTQFEDCTVLTIAHRLNTIMDYTRVIVLDKGEIQEYGAPSDLLQQRGLFYSMAKDAGLV
Km: 0.75 µM
